Key:
[1] = tested on: aspartate transaminase (AST); experiment: Example 22 non-human primate study, serum chemistry aspartate transaminase (AST); assay type: in vivo, cynomolgus monkey; conditions: Male NHP, 0.5 mg/kg
Description: (§1) LNP formulations, shown in Table 31 (above), were administered to non-human primates (NHP) (cynomolgus monkey) (n=2) as intravenous injection (IV). The NHP were administered a single modified mRNA IV dose of 0.5 mg/kg, 0.05 mg/kg or 0.005 mg/kg of G-CSF or EPO in a dose volume of 0.5 mL/kg. The NHPs were bled before dosing with the modified mRNA LNP formulations to determine protein expression in the serum and a baseline complete blood count. After administration with the G-CSF modified mRNA formulation the NHP were bled at 8, 24, 48 and 72 hours to determined protein expression. After administration with the EPO modified mRNA formulation the NHP were bled at 8, 24, 48, 72 hours and 7 days to determined protein expression.

reticulocytes = experiment: Example 22 non-human primate study, reticulocyte count; assay type: in vivo, cynomolgus monkey
Description: as §1
Samples collected from the NHPs after they were administered with G-CSF or EPO modified mRNA formulations were analyzed by ELISA to determine protein expression. Neutrophil and reticulocyte count was also determined pre-dose, 24 hours, 3 days, 7 days, 14 days and 18 days after administration of the modified G-CSF or EPO formulation.

[2] = tested on: alanine transaminase (ALT); experiment: Example 22 non-human primate study, serum chemistry alanine transaminase (ALT); assay type: in vivo, cynomolgus monkey
Description: as §1

mice = experiment: Saline formulation: human G-CSF / EPO in mouse serum; assay type: in vivo; conditions: 100 ug in F. buffer, bled 13 hours after injection, G-CSF group
Description: The mice were bled at 13 hours after the injection to determine the concentration of the human polypeptide in serum in pg/mL. (G-CSF groups measured human G-CSF in mouse serum and EPO groups measured human EPO in mouse serum).

B1: G-CSF: human G-CSF mRNA SEQ ID NO: 6, polyA ~160 nt, Cap1, fully modified with 5-methylcytosine and pseudouridine (nucleic acid, listed as Homo sapiens)
chain: GGGAAAUAAGAGAGAAAAGAAGAGUAAGAAGAAAUAUAAGAGCCACCAUGGCCGGUCCCGCGACCCAAAGCCCCAUGAAACUUAUGGCCCUGCAGUUGCUGCUUUGGCACUCGGCCCUCUGGACAGUCCAAGAAGCGACUCCUCUCGGACCUGCCUCAUCGUUGCCGCAGUCAUUCCUUUUGAAGUGUCUGGAGCAGGUGCGAAAGAUUCAGGGCGAUGGAGCCGCACUCCAAGAGAAGCUCUGCGCGACAUACAAACUUUGCCAUCCCGAGGAGCUCGUACUGCUCGGGCACAGCUUGGGGAUUCCCUGGGCUCCUCUCUCGUCCUGUCCGUCGCAGGCUUUGCAGUUGGCAGGGUGCCUUUCCCAGCUCCACUCCGGUUUGUUCUUGUAUCAGGGACUGCUGCAAGCCCUUGAGGGAAUCUCGCCAGAAUUGGGCCCGACGCUGGACACGUUGCAGCUCGACGUGGCGGAUUUCGCAACAACCAUCUGGCAGCAGAUGGAGGAACUGGGGAUGGCACCCGCGCUGCAGCCCACGCAGGGGGCAAUGCCGGCCUUUGCGUCCGCGUUUCAGCGCAGGGCGGGUGGAGUCCUCGUAGCGAGCCACCUUCAAUCAUUUUUGGAAGUCUCGUACCGGGUGCUGAGACAUCUUGCGCAGCCGUGAAGCGCUGCCUUCUGCGGGGCUUGCCUUCUGGCCAUGCCCUUCUUCUCUCCCUUGCACCUGUACCUCUUGGUCUUUGAAUAAAGCCUGAGUAGGAAG
modifications: polyA ~160, Cap1, 5mC/pseudouridine modified
- AST ([1]; 14 days): 47 U/L
- AST ([1]; Pre-dose): 32 U/L
- Reticulocyte count (reticulocytes; Table 39, Female NHP, 0.005 mg/kg, 14/18 days): 0.057 10^12/L
- Reticulocyte count (reticulocytes; Table 39, Female NHP, 0.005 mg/kg, 24 hours): 0.07 10^12/L
- Reticulocyte count (reticulocytes; Table 39, Female NHP, 0.005 mg/kg, 3 days): 0.054 10^12/L
- Reticulocyte count (reticulocytes; Table 39, Female NHP, 0.005 mg/kg, 7 days): 0.066 10^12/L
- Reticulocyte count (reticulocytes; Table 39, Female NHP, 0.005 mg/kg, Pre-dose): 0.06 10^12/L
- Reticulocyte count (reticulocytes; Table 39, Female NHP, 0.05 mg/kg, 14/18 days): 0.06 10^12/L
- Reticulocyte count (reticulocytes; Table 39, Female NHP, 0.05 mg/kg, 24 hours): 0.046 10^12/L
- Reticulocyte count (reticulocytes; Table 39, Female NHP, 0.05 mg/kg, 3 days): 0.061 10^12/L
- Reticulocyte count (reticulocytes; Table 39, Female NHP, 0.05 mg/kg, 7 days): 0.094 10^12/L
- Reticulocyte count (reticulocytes; Table 39, Female NHP, 0.05 mg/kg, Pre-dose): 0.049 10^12/L
- Reticulocyte count (reticulocytes; Table 39, Female NHP, 0.5 mg/kg, 14/18 days): 0.071 10^12/L
- Reticulocyte count (reticulocytes; Table 39, Female NHP, 0.5 mg/kg, 24 hours): 0.046 10^12/L
- Reticulocyte count (reticulocytes; Table 39, Female NHP, 0.5 mg/kg, 3 days): 0.017 10^12/L
- Reticulocyte count (reticulocytes; Table 39, Female NHP, 0.5 mg/kg, 7 days): 0.021 10^12/L
- Reticulocyte count (reticulocytes; Table 39, Female NHP, 0.5 mg/kg, Pre-dose): 0.055 10^12/L
- Reticulocyte count (reticulocytes; Table 39, Male NHP, 0.005 mg/kg, 14/18 days): 0.069 10^12/L
- Reticulocyte count (reticulocytes; Table 39, Male NHP, 0.005 mg/kg, 24 hours): 0.037 10^12/L
- Reticulocyte count (reticulocytes; Table 39, Male NHP, 0.005 mg/kg, 3 days): 0.037 10^12/L
- Reticulocyte count (reticulocytes; Table 39, Male NHP, 0.005 mg/kg, 7 days): 0.046 10^12/L
- Reticulocyte count (reticulocytes; Table 39, Male NHP, 0.005 mg/kg, Pre-dose): 0.037 10^12/L
- Reticulocyte count (reticulocytes; Table 39, Male NHP, 0.05 mg/kg, 14/18 days): 0.107 10^12/L
- Reticulocyte count (reticulocytes; Table 39, Male NHP, 0.05 mg/kg, 24 hours): 0.048 10^12/L
- Reticulocyte count (reticulocytes; Table 39, Male NHP, 0.05 mg/kg, 3 days): 0.101 10^12/L
- Reticulocyte count (reticulocytes; Table 39, Male NHP, 0.05 mg/kg, 7 days): 0.157 10^12/L
- Reticulocyte count (reticulocytes; Table 39, Male NHP, 0.05 mg/kg, Pre-dose): 0.055 10^12/L
- Reticulocyte count (reticulocytes; Table 39, Male NHP, 0.5 mg/kg, 14/18 days): 0.029 10^12/L
- Reticulocyte count (reticulocytes; Table 39, Male NHP, 0.5 mg/kg, 24 hours): 0.032 10^12/L
- Reticulocyte count (reticulocytes; Table 39, Male NHP, 0.5 mg/kg, 3 days): 0.041 10^12/L
- Reticulocyte count (reticulocytes; Table 39, Male NHP, 0.5 mg/kg, 7 days): 0.009 10^12/L
- Reticulocyte count (reticulocytes; Table 39, Male NHP, 0.5 mg/kg, Pre-dose): 0.067 10^12/L
- ALT ([2]; Female NHP, 0.005 mg/kg, 2 days): 32 U/L
- ALT ([2]; Female NHP, 0.005 mg/kg, 4 days): 58 U/L
- ALT ([2]; Female NHP, 0.005 mg/kg, 7 days): 55 U/L
- ALT ([2]; Female NHP, 0.005 mg/kg, 14 days): 46 U/L
- ALT ([2]; Female NHP, 0.005 mg/kg, Pre-dose): 51 U/L
- ALT ([2]; Female NHP, 0.05 mg/kg, 2 days): 39 U/L
- ALT ([2]; Female NHP, 0.05 mg/kg, 4 days): 56 U/L
- ALT ([2]; Female NHP, 0.05 mg/kg, 7 days): 73 U/L
- ALT ([2]; Female NHP, 0.05 mg/kg, 14 days): 31 U/L
- ALT ([2]; Female NHP, 0.05 mg/kg, Pre-dose): 53 U/L
- ALT ([2]; Female NHP, 0.5 mg/kg, 2 days): 209 U/L
- ALT ([2]; Female NHP, 0.5 mg/kg, 4 days): 98 U/L
- ALT ([2]; Female NHP, 0.5 mg/kg, 7 days): 149 U/L
- ALT ([2]; Female NHP, 0.5 mg/kg, 14 days): 145 U/L
- ALT ([2]; Female NHP, 0.5 mg/kg, Pre-dose): 216 U/L
- ALT ([2]; Male NHP, 0.005 mg/kg, 2 days): 39 U/L
- ALT ([2]; Male NHP, 0.005 mg/kg, 4 days): 48 U/L
- ALT ([2]; Male NHP, 0.005 mg/kg, 7 days): 29 U/L
- ALT ([2]; Male NHP, 0.005 mg/kg, 14 days): 44 U/L
- ALT ([2]; Male NHP, 0.005 mg/kg, Pre-dose): 43 U/L
- ALT ([2]; Male NHP, 0.05 mg/kg, 2 days): 82 U/L
- ALT ([2]; Male NHP, 0.05 mg/kg, 4 days): 88 U/L
- ALT ([2]; Male NHP, 0.05 mg/kg, 7 days): 73 U/L
- ALT ([2]; Male NHP, 0.05 mg/kg, 14 days): 50 U/L
- ALT ([2]; Male NHP, 0.05 mg/kg, Pre-dose): 58 U/L
- ALT ([2]; Male NHP, 0.5 mg/kg, 2 days): 63 U/L
- ALT ([2]; Male NHP, 0.5 mg/kg, 4 days): 70 U/L
- ALT ([2]; Male NHP, 0.5 mg/kg, 7 days): 41 U/L
- ALT ([2]; Male NHP, 0.5 mg/kg, 14 days): 43 U/L
- ALT ([2]; Male NHP, 0.5 mg/kg, Pre-dose): 29 U/L
- Average Protein Product, serum (human G-CSF) (mice): 45 pg/mL

Reference: patent US20160193299A1, “MODIFIED NUCLEOSIDE, NUCLEOTIDE, AND NUCLEIC ACID COMPOSITIONS” (Moderna Therapeutics, Inc., priority 2011, published 2016)
